Substrate in data set [1]: O=C(O)c1ccc(O)c(O)c1
Kind of data set: purified protein. Format: biochemical, Blastobotrys adeninivorans. The note with it: 50 mM potassium phosphate pH 6.2, 40 °C.

Substrate in data set [2]: O=C(O)c1cc(O)c(O)c(O)c1
The experiment in a line: purified protein. The following applies: 50 mM potassium phosphate pH 6.2, 40 °C. Format: biochemical, Blastobotrys adeninivorans.

Our source for the Km and kcat values is paper PMC5605622, “Agdc1p – a Gallic Acid Decarboxylase Involved in the Degradation of Tannic Acid in the Yeast Blastobotrys (Arxula) adeninivorans” (Frontiers in Microbiology, 2017).

As a reminder, the Km is the concentration of substrate that gives half-maximal velocity. In general, kcat refers to the maximal rate divided by the concentration of active sites.

B1: Agdc1-6hp (Agdc1p, gallic acid decarboxylase) (Blastobotrys adeninivorans) (protein)
chain: MTTSYEPWPQLYSHLNGTNEEVLDRMKVAELCKGWSVYRDASEWANFKEMFTPDANIWTTWSGAQTIDSFIQISKDGKDKGAFIMHRECGTLVDLNPKTQRAIGKMKTTITQRFEYEGVPFDIDCDNYFIFFCLKDSNGDWKARWYKVFYVKDKFVPVGVPTAENMEKLAKLFSKENLEQYPWGYQYLAVAQANLGYPIDKKLPTWKNELYHTMYDAMKEWMEGKEIDLHW
notes: full-length ORF (696 bp, 232 residues as printed), C-terminal 6xHis tag kept, expressed in A. adeninivorans G1212, IMAC purified
With B1, in “purified protein [1]”, the Km was 3200 ± 200 µM and the kcat is 44.0 ± 3.4 s⁻¹. Besides, in the data set “purified protein [2]”, the Km is 700 ± 200 µM and the turnover number (kcat) is 42.0 ± 8.2 s⁻¹.
